For one series, the target named is T1, AtSNAT1 (Arabidopsis thaliana, UniProt Q7X9V3).
T1 construct: gene NSI
In words: HPLC of N-acetylserotonin formed. It is filed as biochemical. The following applies: serotonin 0.5 mM.

Substrate in series [1]: NCCc1c[nH]c2ccc(O)cc12
Briefly: HPLC of N-acetylserotonin formed, Lineweaver-Burk. The format is biochemical, Arabidopsis thaliana. The settings on record: acetyl-CoA 0.5 mM, 100 mM potassium phosphate pH 7.8, 45 °C, printed as Km for NAS (synthesis).

Substrate in series [2]: COc1ccc2[nH]cc(CCN)c2c1
Briefly: HPLC of melatonin formed, Lineweaver-Burk. It is filed as biochemical, Arabidopsis thaliana. The settings on record: acetyl-CoA 0.5 mM, 100 mM potassium phosphate pH 7.8, 45 °C.

The text below walks through data of paper PMC6920769, “Knockout of Arabidopsis Serotonin N-Acetyltransferase-2 Reduces Melatonin Levels and Delays Flowering” (Biomolecules, 2019).

T1 sequence (Q7X9V3 59-258): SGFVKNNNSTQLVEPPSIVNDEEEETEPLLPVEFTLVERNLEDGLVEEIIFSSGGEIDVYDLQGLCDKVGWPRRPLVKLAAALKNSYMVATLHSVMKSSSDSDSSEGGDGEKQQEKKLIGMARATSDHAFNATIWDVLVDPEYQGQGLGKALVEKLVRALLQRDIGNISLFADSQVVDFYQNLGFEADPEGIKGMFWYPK

On to `NCCc1c[nH]c2ccc(O)cc12` [serotonin], for which the “HPLC of N-acetylserotonin formed” value at AtSNAT1 is on record as “Melatonin-mediated inhibition of NAS synthesis by recombinant AtSNAT1”.

B1: AtSNAT2 (Arabidopsis thaliana) (protein)
chain: MFLGGTISTPPASLRLRSTLNPQNAVTQSSSQATFPAAMQRKPPSYSISDEDLESRGFLLRRTTEGLNLDQLNSVFAAVGFPRRDTAKIEVALQHTDALLWVEYEKTRRPVAFARATGDGVFNAIIWDVVVDPSFQSCGLGKAVMERLIEDLQVKGICNIALYSEPRVLGFYRPLGFVSDPDGIKGMVFIRKQRNKK
notes: kinetics text says recombinant AtSNAT2 (not the truncated form)
The term Km denotes the substrate concentration at which the rate is half of its maximum. As for B1, the Km is 232 µM in series [1] and 630 µM in series [2].
